Results reported in the nanobody polyreactivity screen of Harvey et al. (2022).

Assay: yeast display, Sf9 membrane polyspecificity reagent, FACS + sequencing; frameworks hold sequencing errors
In short: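 In a synthetic yeast display library (Saccharomyces cerevisiae BJ5465), nanobody expression was induced with galactose for 36–48 hours. FACS gates were set low and high (top ~1%) using anti-HA fluorescence for expression and streptavidin fluorescence for binding of the Sf9 membrane reagent. Each polyreactivity label is drawn from the gate of origin.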

**Q.** With “QVQLVESGGGLVQAGGSLRLSCAASGSTFYPNAMGWYRQAPGKERELVAAISGDDSTYYADSVKGRFTISRDNAKNTVYLQMNSLKPEDTAVYYCAAGDYRIGYLYYYWGQGTQVTVSS” as the sequence, how does the “polyreactivity (PSR sort gate)” value read?
**A.** low polyreactivity

**Q.** With “QVQLQESGGGLVQVGGSQRLSCAASGNIFFNYAMGWYRHAQGKEREFDASINHGTSINYEDSVKGRFTISRDNAKNTVYLQMNSLKPEDTAVYYCAADLSWTDNLFYWGQGTQVTVSS” as the sequence, how does the “polyreactivity (PSR sort gate)” value read?
**A.** low polyreactivity

**Q.** Which “polyreactivity (PSR sort gate)” value does the source give for “QVQLVESGGGLVQAGGSLRLSCAASGSTLYYNAMGWYRQAPGKERELVAAISWSGGSTYYADSVKGRFTISRDNAKNTVYLQMNSLKPEDTAVYYCAADQSTVLDVGSWGQGTQVTVSS” here?
**A.** low polyreactivity

**Q.** For “QVQLVESGGGLVQAGGILRLSCAASGRILDYYAMGWYRQAPGKERELVAAISRSGSDTYYADSVKGRFTISRDNAKNTVYLQMNSLKPEETAVYYCAARWSYRSLARYNYWGQGTQVTVSS”, which “polyreactivity (PSR sort gate)” value is on record?
**A.** low polyreactivity

**Q.** For “QVQLVESGGGVVQAGGSLRLSCAASGFIFWLYAMGRYRQAPGKERELVATITYSDGSTYYADSVKGRFTISRDKANNTDYLQMNSLKPEDTAVYYCAAEVYYGYDYWGQGTQVTVSS”, which “polyreactivity (PSR sort gate)” value is on record?
**A.** low polyreactivity

**Q.** With “QVQLVESGGGLFQARGSLRLSCAASGRTFWYYTMGWYRPAPGKERELVASITYRGGSTYYADSVKGRFTISRDNAKITVYLQMNSLKREDTALYYCYARYKRYSYDYWGQGTQVTVSS” as the sequence, how does the “polyreactivity (PSR sort gate)” value read?
**A.** high polyreactivity

**Q.** With “QDQLVESGGGIVQAGGSIRLSCAASGNTFGWYAMGWYRKAPGKERELVASISSSGSTNYADSVKGRFTISRDNAKNTVYLQMNSLKPEDTAVYYSNADLTQYLGPVYEYVYWGQGTQVTVSS” as the sequence, how does the “polyreactivity (PSR sort gate)” value read?
**A.** low polyreactivity

**Q.** For “QFQLGESGGGLVQAGGSLRLSCAACGSTFYLYAMGWYRQAPGKDRELVAAISKSCGSTYYADSVKGRFTISRDNAKNTVYLQMNSLKPEVTAVYYCATRWIKGRKMDYWGQGTQVTVSS”, which “polyreactivity (PSR sort gate)” value is on record?
**A.** high polyreactivity

**Q.** For “QVQLVESGGGLVQAGGSLRLSCPASGRTFPGYSKGWYRQAPGKERELVATITGNGGSTYYADSVKGRFTISRENAKNTVYLQMNSLKPEDTAVYYCAGGRRRPYVRAYRGTDYWVQGTQVTVSS”, which “polyreactivity (PSR sort gate)” value is on record?
**A.** low polyreactivity

**Q.** With “QVQIVESGGGLVQAGGSLRLSCPASGRIFYNNAMGWYRPAPGKERELVAAINWSGGSTYYADSVKGRFTISRDNAKNTVYLQMNSLKPEDTAVYYCNADPHGYYGYGYDYWGQGTQVTVSS” as the sequence, how does the “polyreactivity (PSR sort gate)” value read?
**A.** low polyreactivity

**Q.** For “QVQLVESGGGLVQAGGSLRLSCAASGRIFNYYAMGWYRQAPGKEREFVAAITSGGGSTYYADSVKGRFTISRDNAKNNVYLQMNSLKPEDTAVYYCNARLQSQVDAIGYGYWGQGTQVTVSS”, which “polyreactivity (PSR sort gate)” value is on record?
**A.** high polyreactivity

**Q.** Which “polyreactivity (PSR sort gate)” value does the source give for “QVQLVESGGGLVQAGGSLRLSCAASGRIFGVYAMGWYRQAPGKERELVAAIYSGSSTYYADSVKGRFTISRDNAKNTVYLHMNSLKPEDTAVYYCAAVSRDDNYQDYYYWGQGTQVTVSS” here?
**A.** low polyreactivity

**Q.** With “QVQLVESGGGLVQAGGSLRLSCAASGRIFEGYAMGWYRQAPGKERELVAAITGSGGGTYYADSVKGRFTISRDNAKNTVYLQMNSLKPEDTAVYYCATAYSAYQHPYGYWGQGTQVTVSS” as the sequence, how does the “polyreactivity (PSR sort gate)” value read?
**A.** low polyreactivity

**Q.** Which “polyreactivity (PSR sort gate)” value does the source give for “QVQLVESGGGLVQAGGSLRLSCAASGFIFSRNAMGWYRQAPGKERELVAAITRGGITYYADSVKGRFTISRDNAKNTVYLQMNSLKPEDTAVYYCAAYRTYQAYTGSHYYYWGQGTQVTVSS” here?
**A.** high polyreactivity

**Q.** With “QVQLVESGGGLVQAGGSLRLSCAASGSIFIDNAMGWYRQAPGKEREFVAAISKSGTSTYYADSVKGRFTISRDNAKNTVYLQMNSLKPEDTAVYYCAVRRPRPYSNYYYWGQGTQVTVSS” as the sequence, how does the “polyreactivity (PSR sort gate)” value read?
**A.** high polyreactivity

**Q.** Which “polyreactivity (PSR sort gate)” value does the source give for “QVQLVESGGGLVQAGGSLRLSCAASGRTFYIYAMGWYRQAPGKERELVAAISWGSGSTYYADSVKGRFTISRDNAKNTVYLQMNSLKPEDTAVYYCAAEYAYPSEWTYDYWGQGTQVTVSS” here?
**A.** low polyreactivity

**Q.** With “QVQLVESGGGLVQAGGSLRLSCAASGLIFNVNAMGWYRQAPRKERELVAAITGGGGSTYYADSVKGRFTISRDNAKNTVYLQMNSLKPEDTAVYYCAATTGLYTRYGDWGQVTQVTVSS” as the sequence, how does the “polyreactivity (PSR sort gate)” value read?
**A.** high polyreactivity

**Q.** Which “polyreactivity (PSR sort gate)” value does the source give for “QVQLVESGGGLVQAGGSLRLSCAASGFTFPTYAMGWYRQAPGKERELVAALSTSGARTYYADSVKGRFTISRDNAKNTVYLQMNSLKPEDTAVYYCAVGSIYTICFRKGYRFDYWGQGTQVTVSS” here?
**A.** high polyreactivity

**Q.** With “QVQLVESGGGLVQAGGSLRLSCAGLRIYLPGYAKGWYIQAPGKERELVAVISGSGSGTYYADSVKGRFTISLDNAKNTVYLQMNSLKPEDTAVYYCAADAGSNEAYFRRMDYWGQGTQVTVSS” as the sequence, how does the “polyreactivity (PSR sort gate)” value read?
**A.** high polyreactivity

**Q.** With “QVQLVESGGGLVQAGGSLRLSCAASGSIFKCNSRGWYRQAPVKERELVAAITFSGSSTFYADSVKGRFTISRDTAKNTVYLQMNSLKTEDSALYYCNAVRRQQFGSWGQGTQGTVSS” as the sequence, how does the “polyreactivity (PSR sort gate)” value read?
**A.** high polyreactivity

**Q.** Which “polyreactivity (PSR sort gate)” value does the source give for “QVQLQESGGRLVQAGGSLRLSCAPSGDILEADDMGWYRQAPGKERELVASITDGGSTNCADSMKGRSTICRDNAKITVYLQMNSLKPEDTAVYYCAADAWDLYSDGQEYNYWGQGTQVTVSS” here?
**A.** high polyreactivity

**Q.** Which “polyreactivity (PSR sort gate)” value does the source give for “HVQLVESGGRLVQAGGSLRLSCAASGSIFVPNAMGWYRQAPGKERELVATISWSGGSTYADCVKGRFTISRDNAKNTVYLQMKSLKPEDTAVYYCNARRYDPGSRYDYWGQGTQVTVSS” here?
**A.** low polyreactivity

**Q.** With “QVQLVESGGGLVQAGGSLRLSCAASGSTFVVNVMGWYRQAPGKERELVAAITYRSGSTYYADSVKGSFTISRDNAKNTVYLQMNSLKPEDTAVYYCAAGYYSRYYVAFEYYYWGQGTQVTVSS” as the sequence, how does the “polyreactivity (PSR sort gate)” value read?
**A.** high polyreactivity

**Q.** Which “polyreactivity (PSR sort gate)” value does the source give for “QVQLVESGGGLVQAGGSLRLSCAASGSIFGYYAMGCYRQAPGKERELDAAISASGGSTYYADSVKGRFTISRDNAKITVYFHMNSLKPEDTAVYYCAAVRSVTYIWARYPYGLEYCGQGTQVTVSS” here?
**A.** high polyreactivity

**Q.** With “QDQLVESGGCLVQAGGSLRLSCAASGSTFGYNVMGRYRQAPGKERELVAAISSSGGSTYYADSVKGRFSISRDNAKNTVYLQMNSLKPEDTAVYYCARSTYPYRYGYWGQGTQVTVSS” as the sequence, how does the “polyreactivity (PSR sort gate)” value read?
**A.** high polyreactivity

**Q.** With “QVQLVESGGGLVQAGGSLRLSCAASGFIFDYYAMGWYRQAPGKERELVAAITRDGGGTYYADSVKGRFTISRDNEKNSVYLQMNSLKPEDTAVYYCAAETYWYYRANYDYWGQGTQVTVSS” as the sequence, how does the “polyreactivity (PSR sort gate)” value read?
**A.** high polyreactivity

**Q.** For “QVQLVESWGGLVQAGGSHRLSCAASGRTFGIYAMGWYRQAPGKERELVATISWRGGSTYYADSVKGRFTISRDNAKNTVYLQMNSLKPEDTAVYYCAAGYYPYWGQGTQVTVSS”, which “polyreactivity (PSR sort gate)” value is on record?
**A.** low polyreactivity

**Q.** With “QVQLVESGGGLVQAGGSLRLSCAASGSILKRYAMGWYRQAPGKERELVAAITRRGGSTYYADSVKGRFTISRDNAKNTVYLQMNSLKPEDTAVYYCNAYTYSATVPIFTNYGYWGQGTQVTVSS” as the sequence, how does the “polyreactivity (PSR sort gate)” value read?
**A.** high polyreactivity

**Q.** For “QVQLVESGGGLVQAGGSLRLSCDASGFIFYSYAMGWYRQAPGKERELVAGITSGGITSYADSVKGRFTISRDNAKNTVYLQMNSLKPEDTAVYYCAKDVRSYRISVYGVGYWGQGTQVTVSS”, which “polyreactivity (PSR sort gate)” value is on record?
**A.** high polyreactivity

**Q.** Which “polyreactivity (PSR sort gate)” value does the source give for “QVQLVESGGGLVQAGGSLRLSCAASGYIFKYNTMGWYRQAPGKERELVASITWSGVRTYYADSVKGRFTISRDNAKNTVYLQMNSLKPEDTAVYYCNAAYRRSWDSDDYWGQGTQVTVSS” here?
**A.** low polyreactivity

**Q.** For “QVQLGESGGGLVQAGGSLRLSCAASGIIIFLYAMGWYRPAPGKEREFVAAINYSSGSTYYADSVKGRFTISRDNAKNTVYLQMNSLKPEDTAVYYCAADPVHRYPGTGGYWGQGTQVTVSS”, which “polyreactivity (PSR sort gate)” value is on record?
**A.** low polyreactivity

**Q.** Which “polyreactivity (PSR sort gate)” value does the source give for “QVQLVESGGGLVQAGGSLRLSCAASGSTFVGYAMGWYRQAPGQERELVAGITINGGSTYYADSVKGRFTISRDNAKNTVYLQMNSLKPEDTAVYYCAATGNENYPDPLQSMDYWGQGTQVTVSS” here?
**A.** low polyreactivity

**Q.** With “QVQLVESGGGLVQAGGSLRLSCAASGFTFGTYAMGWYRQAPGKERELVAGITSGDGTYYADSVKGRFTISRDNAKNTVYLQMNSLKPEDTAVYYCAVVHYQQYSWRVYFYPYDYWGQGTQVTVSS” as the sequence, how does the “polyreactivity (PSR sort gate)” value read?
**A.** high polyreactivity

**Q.** With “QVQLVESGGGLVQAGGSLRLSCAASGYIFYYNAMGWYRQAPGKERELVADITWSGDSTYYADSVKGRFTISRYNAKNTVYLQMNSLKPEDTAVYYCAAEYLEYWDYDIMDYWGQGTQVTVSS” as the sequence, how does the “polyreactivity (PSR sort gate)” value read?
**A.** low polyreactivity

**Q.** Which “polyreactivity (PSR sort gate)” value does the source give for “QVQLVESGGGLVQAGGSLRLSWAASGSTFGFYAMGWYRQAPGKERELVASISSGGTTYHADSVKGRFTISRDNAKNTVYLQMNSLKPEDTAVYYSAAFYVATSKLGYWGQGSQVTVSS” here?
**A.** low polyreactivity

**Q.** With “QDQLVESGGGLVQAGGSLRLSCAASGRTFYRYAMGWYRQAPGKERELVASITRGTSTNYADSVKGRFTISRDNAKNTVYLQMNSLKPEDTAVYYCNRRIFGGQRMYYWGQGTQVTVSS” as the sequence, how does the “polyreactivity (PSR sort gate)” value read?
**A.** high polyreactivity

**Q.** Which “polyreactivity (PSR sort gate)” value does the source give for “QVRLVESAGGIVQAGGSLRLSCAASGRTFSVHAMGWYTQAPGKERELVAAISWDGGSTYYGDSVKGRFTISRDNSKNTVYLQMNSLKPEDTAVYYCYKELYYAYDYWGLGTQVTVSS” here?
**A.** low polyreactivity

**Q.** For “QVQLVESAGGLVQAGGSLRLSCAASGNTFRYYAIGWYRQAPGKERELVAVITTRGGSTNYADSVKGRFTISRDNAKNTVYLQMNRLKPEVTAGYYCNTLRHYGPGYDSGGQGTQVTVSS”, which “polyreactivity (PSR sort gate)” value is on record?
**A.** low polyreactivity

**Q.** With “QVQLVESGGGLVQAGGSLRLSCAASGRTFAIYTRGWYRQAPGKERELVASITSSGASTYYADSVKGRFTISRDNAKNTVYLQMNSLKPEYTAVYYCAAGWYQGFDYWGQGTQVTVSS” as the sequence, how does the “polyreactivity (PSR sort gate)” value read?
**A.** high polyreactivity

**Q.** Which “polyreactivity (PSR sort gate)” value does the source give for “QVQLVESGGGLVQAGGSLRLSCAASGFIFASYAMGWYRQAPWKERELVAAISYRGGTTYYADSVKGRFTISRDNAKNTVYLQMNSLKPEDTAVYYCAADSPENRYNDWGQGTQVTVSS” here?
**A.** high polyreactivity

**Q.** Which “polyreactivity (PSR sort gate)” value does the source give for “QVQLQESGGGLVQAGGSLRLSCAASGNIYDADIMGWYRQAPAKERELVTSITDGGSTNYADSVKGRFTISRDNAKNTVYLQMNSLKPEDTAVYYCAAIAYPDIPTSFDYNSDYSYWGQGTQVTVSS” here?
**A.** low polyreactivity
